This data set concerns MS2 coat protein. The data set is described as follows: apparent KD of MS2 coat protein; designed switch direction (-1 OFF switch, 1 ON switch): -1; higher = weaker reporter binding. In outline: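 On Illumina chips, designed RNA switches with common flanks were made by stalled E. coli RNA polymerase. Titrations with SNAP-549-labelled MS2 coat protein, doubling from 0.7 or 1.5 nM to 3 µM, were done with no input, with 200 uM small-molecule ligand, or with an oligonucleotide input. Apparent KD is the median per design over clusters, from curve fits of normalised cluster fluorescence.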

[1] abbreviates: input ligand: microRNA oligo, concentration not stated.
The mark [2] stands for this setting: Eterna round: R95, input ligand: microRNA oligo, concentration not stated.

For “UGAGCUCUAGUAGGAUAUGUCGGAUAUGUUGUUGAGGUUCACCCAACGACGUCAAUGACAGAAGGACAGAAGGACUCCUGCUCU [pwkr exNG2 2xFMN 1xF5.7] (Eterna round: R96, puzzle: Exclusion NG 2)”, the “apparent KD of MS2 coat protein” value reads like this: (input ligand: FMN 200 uM) 111 nM; under setting [1], 77 nM; (input ligand: none) 315 nM.

With “UGAGCUUACGUAGGAUAUGAGGAUCACCCAUAGAAGGAUAUCGAAAGAGAAGGUCUGAGGAUUACCCAGAAGGACGUGGGCUCU [pwkr exNG2 2xF5 2xFMN.12] (Eterna round: R96, puzzle: Exclusion NG 2)”, the “apparent KD of MS2 coat protein” value was found to be 732 nM (input ligand: FMN 200 uM), 122 nM under setting [1] and 151 nM (input ligand: none).

As for “UGAGCUUCAGGAUAUACAAGGCGACCGUGAGGUCGAAGGUUACAUGAGGAUCACCCAUGUAGAAGGGAAGUUCU [Mat - Exclusion 2 - JL Mod - D13] (Eterna round: R97, puzzle: Exclusion 2)”, the “apparent KD of MS2 coat protein” value was 36.7 nM (input ligand: FMN 200 uM) and 21.6 nM (input ligand: none).

For “UGAGCUUGAGGAUAUACAAGGCGACCGUGAGGUCGAGGGUUACAUGAGGAUCACCCAUGUAGAAGGCAAGUUCU [Mat - Exclusion 2 - JL Mod - D10] (Eterna round: R97, puzzle: Exclusion 2)”, the “apparent KD of MS2 coat protein” value stood at 460 nM (input ligand: FMN 200 uM) and 54.3 nM (input ligand: none).

On to “UGAGUACUGCGAGGAUAUACAUGAGGAUCACCCAUGUAAUAGUGUGAGGCUUUGCCUCACACAAUGUAGAAGGCGCAGUACUCU [Mat - Exclusion NG 2 - Mod of JL - D5] (Eterna round: R96, puzzle: Exclusion NG 2)”, for which the “apparent KD of MS2 coat protein” value reads like this: (input ligand: FMN 200 uM) 15.5 nM; under setting [1], 9.63 nM; (input ligand: none) 11.8 nM.

Take “UGAGUGCUGCGAGGAUAUACAUGAGGAUCACCCAUGUAAGCCUGUGAGGCUUUGCCUCACAGGAUGUAGAAGGCGCAGUACUCU [JL ENG2 1.17] (Eterna round: R96, puzzle: Exclusion NG 2)”: the “apparent KD of MS2 coat protein” value (input ligand: FMN 200 uM) was determined as 12.5 nM, the “apparent KD of MS2 coat protein” value under setting [1] was 9.19 nM and the “apparent KD of MS2 coat protein” value (input ligand: none) was 13.5 nM.

Take “UGAGUGCUGCGAGGAUAUACAUGAGGAUCACCCAUGUAAUCGUGUGAGCCAAAGGCUCACACGAAGUAGAAGGCGCAGUACUCU [Mat - Exclusion NG 2 - Mod of JL - D25] (Eterna round: R96, puzzle: Exclusion NG 2)”: the “apparent KD of MS2 coat protein” value by setting is: (input ligand: FMN 200 uM) 12.5 nM; under setting [1], 11.1 nM; (input ligand: none) 15.2 nM.

Turning to “UGAGUGCUGCGAGGAUAUACAUGAGGAUCACCCAUGUGGAUGUCUGAGGCUUUGCCUCAGACAAUGUAGAAGGCGCAGUACUCU [JL ENG2 1.21] (Eterna round: R96, puzzle: Exclusion NG 2)”, the “apparent KD of MS2 coat protein” value is, setting by setting: (input ligand: FMN 200 uM) 96.4 nM; under setting [1], 14.2 nM; (input ligand: none) 21 nM.

As to “UGAGUGCUGCGAGGAUAUACAUGAGGAUCACCCAUGUGGUGGUGUGAGGCUUUGCCUCACACCAUGUAGAAGGCGCAGUACUCU [JL ENG2 1.08] (Eterna round: R96, puzzle: Exclusion NG 2)”, the “apparent KD of MS2 coat protein” value by setting is: (input ligand: FMN 200 uM) 237 nM; under setting [1], 33.3 nM; (input ligand: none) 37.2 nM.

Take “UGAGUGCUGCGAGGAUAUACAUGAGGAUCACCCAUGUUUAGGUGUGAGGCUUUGCCUCACACCAUGUAGAAGGCGCAGUACUCU [JL ENG2 1.07] (Eterna round: R96, puzzle: Exclusion NG 2)”: the “apparent KD of MS2 coat protein” value (input ligand: FMN 200 uM) was determined as 16.8 nM, the “apparent KD of MS2 coat protein” value under setting [1] stood at 8.96 nM and the “apparent KD of MS2 coat protein” value (input ligand: none) turned out to be 12.8 nM.

As to “UGAGUGCUGCGAGGAUAUACAUGAGGAUCACCCAUGUUUUCGUGUGAGGCUUUGCCUCACACGAAGUAGAAGGCGCAGUACUCU [JL ENG2 1.12] (Eterna round: R96, puzzle: Exclusion NG 2)”, the “apparent KD of MS2 coat protein” value runs as follows: (input ligand: FMN 200 uM) 10.8 nM; under setting [1], 11.8 nM; (input ligand: none) 12.3 nM.

For “UGAGUGCUGCGAGGAUAUACAUGAGGAUCACCCAUGUUUUCGUGUGAGGCUUUGCCUCACACGAUGUAGAAGGCGCAGUACUCU [JL ENG2 1.13] (Eterna round: R96, puzzle: Exclusion NG 2)”, the “apparent KD of MS2 coat protein” value is 11.5 nM (input ligand: FMN 200 uM), 8.16 nM under setting [1] and 12.8 nM (input ligand: none).

Consider “UGAUCAAAUGUCAGGAUAUGCUGUUGGAAACAACAGCAGAAGGGACAUGAGGAUCACCCAUGUCUUGUCGAUUU [Magic-02] (puzzle: Brourd's mod of Exclusion 4)”, for which the “apparent KD of MS2 coat protein” value under setting [2] was 20.4 nM.

For “UGAUCAGACCGAGGAUAUACAUGUAGGACGCACGUGAGUGCGUCCAUUACAUGAGGAUCACCCAUGUAGAAGGCGGUCUGAUCU [JL ENG2 1.93] (Eterna round: R96, puzzle: Exclusion NG 2)”, the “apparent KD of MS2 coat protein” value was 331 nM (input ligand: FMN 200 uM), 133 nM under setting [1] and 157 nM (input ligand: none).

As for “UGAUCUACUGAGGAUAUUAUAUCACCCGACUGAUAAGAAGGCAGUACAUGAGGAUCACCCAUGUGGGUAGCCAU [Polaris9] (Eterna round: R97, puzzle: Exclusion 6)”, the “apparent KD of MS2 coat protein” value reads like this: (input ligand: FMN 200 uM) 50.8 nM; (input ligand: none) 34.7 nM.

As to “UGAUCUAGCGGAGGAUAUACAUGAGGAUCACCCAUGUAGAUAUCAUGACCGUAGUCGUGUAUCGUGUAGAAGGCCGCUAGAUCU [JL ENG2 3.69] (Eterna round: R96, puzzle: Exclusion NG 2)”, under setting [1], the “apparent KD of MS2 coat protein” value stood at 12.7 nM.

As to “UGAUCUAGCGGAGGAUAUACAUGAGGAUCACCCAUGUAGUAGUGAGUUGCGUACAGCUCACUUGUGUAGAAGGCCGCUAGAUCU [JL ENG2 3.59] (Eterna round: R96, puzzle: Exclusion NG 2)”, the “apparent KD of MS2 coat protein” value by setting is: (input ligand: FMN 200 uM) 16.5 nM; under setting [1], 10.1 nM; (input ligand: none) 12.7 nM.

In the case of “UGAUCUAGCGGAGGAUAUACAUGAGGAUCACCCAUGUAUAGGCCAUCUGGUGACAGGUGGAACAUGUAGAAGGCCGCUAGAUCU [JL ENG2 3.81] (Eterna round: R96, puzzle: Exclusion NG 2)”, the “apparent KD of MS2 coat protein” value is, setting by setting: (input ligand: FMN 200 uM) 35.9 nM; under setting [1], 9.54 nM; (input ligand: none) 13.9 nM.

With “UGAUCUAGCGGAGGAUAUACAUGAGGAUCACCCAUGUAUAGGCCAUGUGGUGACACGUGGAACAUGUAGAAGGCCGCUAGAUCU [JL ENG2 3.82] (Eterna round: R96, puzzle: Exclusion NG 2)”, the “apparent KD of MS2 coat protein” value stood at 287 nM (input ligand: FMN 200 uM), 73.3 nM under setting [1] and 77.6 nM (input ligand: none).

As to “UGAUCUUGGGUCAGGAUAUGCUGGUAUUUUUGCCAGCAGAAGGGACAUGAGGAUCACCCAUGUUCUUGGUUUUU [Magic-14] (puzzle: Brourd's mod of Exclusion 4)”, under setting [2], the “apparent KD of MS2 coat protein” value came to 10.4 nM.

In the case of “UGCAAGCUUAUGAGACCUCACAUGAGGAUCACCCAUGUGCUCGUCUUAUGGGCCGGCCGGCCGUUGGCCGGCCGGCC [-45.5, -68.5 kcal, A 16%] (Eterna round: R97, puzzle: Sensor, turn-off variant 1)”, the “apparent KD of MS2 coat protein” value was 16.6 nM (input ligand: FMN 200 uM) and 16.5 nM (input ligand: none).

As for “UGCAAUCUUAUGAUAUCUCACAUGAGGAUCACCCAUGUGCUCGUCUUAUGUUCUGUUUUGCUGUUGUCCGGCCGGCC [1st try] (Eterna round: R97, puzzle: Sensor, turn-off variant 1)”, the “apparent KD of MS2 coat protein” value reads like this: (input ligand: FMN 200 uM) 27.5 nM; (input ligand: none) 31.3 nM.

With “UGCAGACGAGGAUAUAAAUGAUAUAACAUGAGGAUCACCCAUGUACGAUCGAAUGAUCGUUUAGAAGGCGUCUGCU [E5/11-A3] (Eterna round: R97, puzzle: Exclusion 5)”, the “apparent KD of MS2 coat protein” value (input ligand: FMN 200 uM) turned out to be 14.1 nM and the “apparent KD of MS2 coat protein” value (input ligand: none) stood at 15.5 nM.

For “UGCAGACGAGGAUAUAGAUUUAGAUACAUGAGGAUCACCCAUGUAUACAUGUAUUUAGAUUUAGAAGGCGUCUGCA [E5/14-A2] (Eterna round: R97, puzzle: Exclusion 5)”, the “apparent KD of MS2 coat protein” value runs as follows: (input ligand: FMN 200 uM) 422 nM; (input ligand: none) 886 nM.

Consider “UGCAGACGAGGAUAUAGAUUUAGAUACAUGAGGAUCACCCAUGUAUACAUGUAUUUAGAUUUAGAAGGCGUCUGCU [E5/14-A3] (Eterna round: R97, puzzle: Exclusion 5)”, for which the “apparent KD of MS2 coat protein” value amounted to 952 nM (input ligand: FMN 200 uM) and 2220 nM (input ligand: none).

For the sequence “UGCAGACGAGGAUAUAGAUUUAGAUACAUGAGGAUCACCCAUGUAUAGAUGUAUUUAGAUUUAGAAGGCGUCUGCU [E5/13-A4] (Eterna round: R97, puzzle: Exclusion 5)”, the “apparent KD of MS2 coat protein” value reads like this: (input ligand: FMN 200 uM) 156 nM; (input ligand: none) 176 nM.

For the sequence “UGCAGACGAGGAUAUGAUUAAUAAUACAUGAGGAUCACCCAUGUAAUACUGAUCUAUGGAUCAGAAGGUGUCUGCU [E5/6-B3] (Eterna round: R97, puzzle: Exclusion 5)”, the “apparent KD of MS2 coat protein” value by setting is: (input ligand: FMN 200 uM) 20.8 nM; (input ligand: none) 24.1 nM.

As for “UGCAUGGUAGGAUAUACGGAACAUUAGGGUUUGUUAUGUAGACAUGAGGAUCACCCAUGUAGAAGGGCCGUGCU [JL-ex2-2.14 mat747 mod] (puzzle: Exclusion 2)”, under setting [2], the “apparent KD of MS2 coat protein” value amounted to 33.8 nM.

Take “UGCCGGGCGUGAUCGGAUGACAUGAGGAUCACCCAUGUGCCAGCACAUAAUACCGCUCGCGGUUUUUUGCUCGUCAU [Eternabot (Original) Solution 12] (Eterna round: R97, puzzle: Sensor, turn-off variant 1)”: the “apparent KD of MS2 coat protein” value runs as follows: (input ligand: FMN 200 uM) 221 nM; (input ligand: none) 250 nM.

As for “UGCCGUUGAGGAUAUACAUUGAAUUUGAUUCAUGUAAAACUACAUGAGGAUCACCCAUGUAGAAGGCAAUGGCU [Mat - Exclusion 2 - JL Mod - D63] (Eterna round: R97, puzzle: Exclusion 2)”, the “apparent KD of MS2 coat protein” value turned out to be 25.7 nM (input ligand: FMN 200 uM) and 21.3 nM (input ligand: none).

The values above are taken from the supplement of paper PMC9170038.
